Measured values as given in the supplement of paper PMC9732359.
± gives the uncertainty stated by the source.

Experiment: protein stability index of a GFP-peptide fusion (yeast GPS) (PSI 1-4); higher = more stable; sorted into four equal gates, so the index is relative within each strain
How it was run: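 Tiled 17-residue peptides from yeast proteins were fused downstream of GFP on a plasmid that also expresses Cherry, and the pooled library was carried in yeast. Mid-log cultures grown in leucine-free medium were sorted into four equal gates by GFP/Cherry fluorescence ratio. Plasmids from each gate were PCR-amplified and Illumina-sequenced, and reads were assigned to strains by barcodes. Each peptide's protein stability index is the sum, over gates, of the gate's read frequency multiplied by its gate number.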

Sequence	protein stability index (doa10∆)	protein stability index (pdr5∆)	protein stability index (san1∆)	protein stability index (ubr1∆)
QQLQVLARYLKMDLDNG [FAS2]	1.9 ± 0.13	2.04 ± 0.089	2.78 ± 0.079	2.31 ± 0.051
QQQLVNQMKVAPIPKQL [GAL11]	2.94 ± 0.046	2.96 ± 0.041	2.974 ± 0.026	2.63 ± 0.038
QQQQIQVPLQQTQAIAQ [YGR119C/NUP57]	2.61 ± 0.061	2.82 ± 0.048	2.88 ± 0.039	2.885 ± 0.028
QQQQQQNNSTGSSSIIY [SSN2]	2.65 ± 0.07	2.99 ± 0.062	2.69 ± 0.091	2.79 ± 0.065
QQQQQQQQPQPQYNMNM [PGD1]	2.33 ± 0.07	2.79 ± 0.065	2.67 ± 0.11	2.81 ± 0.16
QQQQQQQQQQQNNSTGS [SSN2]	2.58 ± 0.06	2.78 ± 0.049	2.52 ± 0.11	2.85 ± 0.065
QQQRRQLTPQQQQLVNQ [GAL11]	2.72 ± 0.049	3 ± 0.05	2.8 ± 0.038	3 ± 0.049
QQVVCIFSYGPHIQKML [POP6]	1.66 ± 0.053	1.77 ± 0.047	1.74 ± 0.11	2.07 ± 0.054
QRKEIKDRISSCSSKEK [SMC4]	2.28 ± 0.1	2.7 ± 0.063	2.49 ± 0.12	2.89 ± 0.09
QRKNIQSLELMIYDDAH [BRR2]	2.39 ± 0.047	2.61 ± 0.051	2.54 ± 0.066	2.46 ± 0.049
QRLVTPQRLQRKRHQRA [RPS6A]	2.64 ± 0.059	3.13 ± 0.05	3.23 ± 0.039	3.09 ± 0.035
QRQYKVQLLLHINSILL [SNF11]	1.88 ± 0.082	1.84 ± 0.061	1.89 ± 0.098	1.96 ± 0.057
QRTAQDRVQQDSEDEDS [YML031W/NDC1]	2.78 ± 0.089	2.56 ± 0.078	3.24 ± 0.081	2.91 ± 0.052
QSQQAQPSDVMFNDLNS [MED2]	3.1 ± 0.057	3.37 ± 0.078	3.44 ± 0.063	3.11 ± 0.095
QSSFAGTWSAKEAVFKS [FAS2]	2.98 ± 0.078	3.23 ± 0.071	3.18 ± 0.054	2.99 ± 0.058
QSSSSTRSHEYGRKSFR [REC8]	2.83 ± 0.11	2.92 ± 0.099	2.84 ± 0.12	3.2 ± 0.13
QSTQTDLEKTERIVVSY [SMC2]	2.98 ± 0.052	2.94 ± 0.065	2.56 ± 0.058	2.69 ± 0.044
QTARKSTGGKAPRKQLA [HHT1]	3.18 ± 0.11	3.29 ± 0.098	3.05 ± 0.072	3.37 ± 0.086
QTDAIKSDEAKWKPVLS [RPN5]	2.62 ± 0.14	2.99 ± 0.19	3.27 ± 0.075	3.2 ± 0.16
QTGTRRNSKLLNTKSIQ [MCD1]	3.29 ± 0.2	3.19 ± 0.18	3.05 ± 0.085	3.2 ± 0.072
QTKSNGTAGGNTFGSSS [YJL041W/NSP1]	3.28 ± 0.063	2.84 ± 0.064	2.96 ± 0.055	3.22 ± 0.053
QTSVTTNFNEITNTDET [SWP82]	2.84 ± 0.061	3.09 ± 0.051	2.86 ± 0.042	3.14 ± 0.039
QTYINQELGFCELLKLT [SSN2]	2.81 ± 0.24	2.45 ± 0.12	2.39 ± 0.17	2.67 ± 0.093
QVEYALESISHAGTAIG [PRE9]	2.34 ± 0.077	2.33 ± 0.083	2.4 ± 0.082	2.52 ± 0.07
QVFSVKDSTAGKKVFET [YJR042W/NUP85]	–	–	3.09 ± 0.2	–
QVGDGLEILIVTKDGVR [PRE7]	2.64 ± 0.054	2.6 ± 0.049	2.92 ± 0.053	2.76 ± 0.052

Sequence	protein stability index (doa10∆)	protein stability index (pdr5∆)	protein stability index (san1∆)	protein stability index (ubr1∆)
QVLNRYTYSSTLSHLRR [RPB2]	2.88 ± 0.043	2.83 ± 0.041	2.77 ± 0.041	2.81 ± 0.03
QVLSQSADPSLLIDQFS [SWI1]	3.03 ± 0.1	2.96 ± 0.073	3.02 ± 0.084	2.99 ± 0.057
QVQGQQQAQSFVGKKNT [SSN3]	2.55 ± 0.053	2.69 ± 0.048	2.57 ± 0.052	2.57 ± 0.041
QWFEAHYGQTLGKKKNV [RPS8A]	2.556 ± 0.025	2.876 ± 0.025	2.44 ± 0.027	2.647 ± 0.022
QYSLERNSPFWWTNSHH [PRP8]	2.56 ± 0.078	2.79 ± 0.065	2.4 ± 0.057	2.69 ± 0.052
QYYRGLPLYEKNTLLER [SWP82]	3.13 ± 0.12	3.34 ± 0.11	3.13 ± 0.072	3.13 ± 0.049
RAGVTIPSIPNPIANHT [SNF5]	2.46 ± 0.05	2.61 ± 0.039	2.43 ± 0.041	2.64 ± 0.031
RAKSCGVDAMSVDDLKK [RPL1A]	2.54 ± 0.078	2.41 ± 0.078	2.69 ± 0.075	2.48 ± 0.05
RAKSSSHLFNEYSYVDS [RPN4]	2.62 ± 0.16	3.23 ± 0.24	3.25 ± 0.19	2.63 ± 0.12
RALQENGIIMNGTLIGC [YMR153W/NUP53]	1.88 ± 0.09	2.28 ± 0.071	2.93 ± 0.13	3.06 ± 0.066
RAPELLLGARHYTPAVD [SSN3]	1.67 ± 0.12	1.08 ± 0.13	1.9 ± 0.3	1.56 ± 0.11
RAQHVKKLATRPKCGDC [RPL34A]	3.06 ± 0.14	3.06 ± 0.12	2.69 ± 0.11	3.13 ± 0.084
RASDLRMTIRTRGRSAT [RRP43]	2.93 ± 0.1	2.36 ± 0.093	2.22 ± 0.17	2.33 ± 0.11
RATNCRKRKCGHTNQLR [RPL40A]	3.25 ± 0.092	3.13 ± 0.058	3.12 ± 0.048	3.17 ± 0.051
RDIFQEDEENSDVLLFQ [RGR1]	3.37 ± 0.061	3.46 ± 0.071	3.4 ± 0.039	3.23 ± 0.035
RDKAGRLAEVNLKDLNN [RPO21]	3.15 ± 0.11	2.75 ± 0.083	2.55 ± 0.086	2.79 ± 0.11
RDLGDDRVFNVPTIGVV [YJR042W/NUP85]	–	–	3.41 ± 0.19	–
RDVSDDVFDTLATYCPR [GRR1]	3.02 ± 0.084	3.04 ± 0.071	3.05 ± 0.056	3.22 ± 0.06
RDVYVFDKVEVQVRSVM [DIS3]	2.92 ± 0.067	3 ± 0.068	3.33 ± 0.052	3.24 ± 0.071
REIQIDAVLKIFSFHQD [SRB8]	3.27 ± 0.08	3.12 ± 0.09	3.06 ± 0.052	3.04 ± 0.04
REKLAEVYKAEKDAVSV [RPS24A]	3.27 ± 0.11	3.17 ± 0.069	3.45 ± 0.054	3.33 ± 0.11
REKVRKLSQYVQEMALG [FAS2]	2.86 ± 0.11	3.41 ± 0.11	3.15 ± 0.071	3.24 ± 0.067
REKYNMKGPAALWDVQF [ARP9]	3.49 ± 0.073	3.59 ± 0.08	3.49 ± 0.062	3.45 ± 0.064
RENVFFQSQQRRKDTSM [RPB9]	3.07 ± 0.083	3.4 ± 0.11	3.34 ± 0.065	2.75 ± 0.15
REQYETQVALNESEKDQ [UBP6]	3.1 ± 0.069	2.66 ± 0.065	2.69 ± 0.067	2.91 ± 0.051
